Here are results for 4 substances from paper PMC5562754.

A word on the stoichiometry N: it is a count of units in the complex or per binding partner.

The target in experiment [1] is PorU (Porphyromonas gingivalis W50 (endogenous in OMVs)). Description: native gel or EMSA; 2D BN-PAGE (Coomassie, spots identified by MS, densitometry) of large-scale glycerol gradient fractions F15-F17 of 1% DDM-solubilised OMV lysate of WT W50. On the technique in general: Mobility shift assays separate free from complexed probe on a gel.
Experiment [2] has as its target PorQ (strain ATCC 33277) (Porphyromonas gingivalis ATCC 33277 (endogenous in OMVs)). Description: native gel or EMSA. The conditions noted are these: scale: PorZ per PorQ.

Substance PorQ (natural protein) gave a stoichiometry N in experiment [1] (scale: PorQ per PorU) of 1.
For the substance PorV (natural protein), the stoichiometry N in experiment [1] (scale: PorV per PorU) turned out to be 3.
PorZ (natural protein) showed a stoichiometry N in experiment [1] (scale: PorZ per PorU) of 1.
Take “PorZ (strain ATCC 33277) (natural protein)”: in experiment [2], the stoichiometry N was found to be 1.
